In the assay the target is VAP-B (human (endogenous in Huh7)) (UniProt O95292). The experiment in a line: co-IP; lysates of Huh7 cells stably harboring wild-type, S225D or S225A SGRs immunoprecipitated with antibodies to NAP1L1, Bin1, VAP-A or VAP-B; Western blot for NS5A, quantified (n = 3).
UniProt O95292, sequence (O95292 whole entry): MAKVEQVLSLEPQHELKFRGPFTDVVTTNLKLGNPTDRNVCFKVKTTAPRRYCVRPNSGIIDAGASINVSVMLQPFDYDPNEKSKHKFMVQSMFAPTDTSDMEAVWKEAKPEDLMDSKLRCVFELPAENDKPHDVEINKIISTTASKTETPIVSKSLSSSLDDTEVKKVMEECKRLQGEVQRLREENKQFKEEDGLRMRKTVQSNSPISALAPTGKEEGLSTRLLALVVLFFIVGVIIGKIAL

“One-Strep-tagged (OST) NS5A S225A of hepatitis C virus JFH-1 (genotype 2a) (natural protein)” showed a reduction in the level bound, against wild type of 50%.

These data come from publication PMC5553161.
